Results taken from patent US20240150475A1 (Molecular Partners, published 2024).

T1: biotinylated extracellular domains of human CD123 with C-terminal Fc tag and Avi tag (bio.hCD123-Fc(kih)-Avi) (human, UniProt P26951 19-303, biotinylated with BirA-GST (Avi tag))
T1 construct: Bought from Evitria; the second Fc chain and the number of CD123 arms are not described; also called biotinylated hCD123; recombinant human CD123 target; not shown: Avi tag
T1 sequence: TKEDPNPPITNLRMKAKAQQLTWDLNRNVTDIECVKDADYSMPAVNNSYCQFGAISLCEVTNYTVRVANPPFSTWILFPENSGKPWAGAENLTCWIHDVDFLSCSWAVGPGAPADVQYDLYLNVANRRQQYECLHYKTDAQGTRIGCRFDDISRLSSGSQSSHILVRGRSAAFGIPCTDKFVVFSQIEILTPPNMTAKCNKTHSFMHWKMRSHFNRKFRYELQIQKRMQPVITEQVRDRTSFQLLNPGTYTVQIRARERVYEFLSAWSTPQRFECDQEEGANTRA

B1: DARPin® protein #3 (monospecific format) (designed binder)
chain: DLGKKLLQAARAGQLDEVRELLKAGADVNAKDQYGRTPLHLAAIKGHLEIVEVLLKAGADVNAKDSLGYTPLHLAAVEGPLEIVEVLLKAGADVNAKDAYGQTPLHIAAAWGHLEIVEVLLKAVADVNAQDKSGKTPADLAARAGHQDIAEVLQKAA
B2: DARPin® protein #2 (designed binder)
chain: DLGKKLLEAALEGQLDEVRELLKAGADVNAKDQEGYTPLHLAAALGHLEIVEVLLKAGADVNAKDSIGRTPLHLAAYKGHLEIVEVLLKAGADVNAQDLLGETPADLAAEQGHQDIAEVLQKAA
B3: DARPin® protein #9 (monospecific format) (designed binder)
chain: DLGWKLLDAAEIGQDDEVRILLAAGADVNAKDKQGITPLHIAAAHGHLEIVEVLLKAGADVNAKDEIGRTPLHLAAFKGHLEIVEVLLKAGADVNAQDIIGETPADLAAVRGHEDIAEVLQKAA
B4: DARPin® protein #7 (in TCE format) (designed binder, not shown: small tags and cut ends)
chain: MRGSHHHHHHGSDLGKKLLQAARAGQLDEVRELLKAGADVNAKDEYGLTPLHLAAEFGHLEIVEVLLKAGADVNAKDANGHTPLHLAAAYDHLEIVEVLLKAGADVNAKDTSGKTPLHLAAQYGHLEIVEVLLKAGADVNAQDKSGKTPADLAARAGHQDIAEVLQKAA
B5: DARPin® protein #5 (in TCE format) (designed binder, not shown: small tags and cut ends)
chain: MRGSHHHHHHGSDLGKKLLKAALLGQDDEVRELLKAGADVNAKDRFGYTPLHLAAWTGHLEIVEVLLKAGADVNAKDAYGWTPLHIAAHSGHLEIVEVLLKAGADVNAQDLEGETPADLAAAQGHEDIAEVLQKAA
B6: DARPin® protein #1 (in TCE format) (designed binder, not shown: small tags and cut ends)
chain: MRGSHHHHHHGSDLGKKLLEAALEGQDDEVRELLKAGADVNAKDQEGYTPLHLAAALGHLEIVEVLLKAGADVNAKDSIGRTPLHLAAYKGHLEIVEVLLKAGADVNAQDLLGETPADLAAEQGHEDIAEVLQKAA
B7: DARPin® protein #6 (in TCE format) (designed binder, not shown: small tags and cut ends)
chain: MRGSHHHHHHGSDLGEKLLEAALEGQDDEVRELLKAGADVNAKDQEGYTPLHLAAALGHLEIVEVLLKAGADVNAKDSIDRTPLHLAAYKGHLEIVEVLLKAGADVNAQDAAGQTPADLAAALGHEDIAEVLQKAA
B8: DARPin® protein #8 (in TCE format) (designed binder, not shown: small tags and cut ends)
chain: MRGSHHHHHHGSDLGKKLLNAAHIGQDDEVRILLAAGADVNAKDIVGKTPLHIAAWLGHLEIVEVLLKAGADVNAKDDHGWTPLHIAAHVGHLEIVEVLLKAGADVNAQDNAGNTPADLVAFQGHEDIAEVLQKAA
B9: DARPin® protein #3 (in TCE format) (designed binder, not shown: small tags and cut ends)
chain: MRGSHHHHHHGSDLGKKLLQAARAGQLDEVRELLKAGADVNAKDQYGRTPLHLAAIKGHLEIVEVLLKAGADVNAKDSLGYTPLHLAAVEGPLEIVEVLLKAGADVNAKDAYGQTPLHIAAAWGHLEIVEVLLKAVADVNAQDKSGKTPADLAARAGHQDIAEVLQKAA
B10: DARPin® protein #9 (in TCE format) (designed binder, not shown: small tags and cut ends)
chain: MRGSHHHHHHGSDLGWKLLDAAEIGQDDEVRILLAAGADVNAKDKQGITPLHIAAAHGHLEIVEVLLKAGADVNAKDEIGRTPLHLAAFKGHLEIVEVLLKAGADVNAQDIIGETPADLAAVRGHEDIAEVLQKAA
B11: DARPin® protein #4 (in TCE format) (designed binder, not shown: small tags and cut ends)
chain: MRGSHHHHHHGSDLGKKLLQAARAGQLDEVRELLKAGADVNAKDEYGATPLHLAAYSGHLEIVEVLLKAGADVNAKDEWGRTPLHVAALSGHLEIVEVLLKAGADVNAKDHQGRTPLHLAALWGHLEIVEVLLKAVADVNAQDKSGKTPADLAARAGHQDIAEVLQKAA

Molecular target: T2, CD123 expressed on the surface of Molm-13 (Molm-13 N1) tumor cells (human, UniProt P26951 19-378)
T2 construct: whole, on cells; also called CD123-expressing tumor cells; CD123 expressed on tumor cells
Experiment: flow cytometry on CD123-expressing Molm-13 N1 tumor cells, monospecific format
Procedure: Binding of binding proteins of the invention to CD123 expressed on the surface of tumor cells was analyzed by fluorescence activated cell sorting (FACS) flow cytometry. For this purpose, CD123 expressing tumor cells (Molm-13 N1) were seeded at 100′000 cells per well in a 96 well plate. DARPin protein #2, DARPin protein #3, DARPin protein #9, DARPin protein #12, DARPin protein #13 and DARPin protein #14, in monospecific format, were titrated down in 1:5 dilution ratio starting at 2000 nM. Tumor cells were resuspended with diluted DARPin proteins and incubated for 60 minutes at 4° C. The assay was performed in PBS including 2% fetal bovine serum without human serum albumin (HSA). After washing twice with Phosphate Buffer saline (PBS), DARPin® protein specific tumor cell binding was detected by adding unlabeled primary anti-rabbit DARPin® antibody (anti-rabbit 1-1-1 antibody, CePower) at 2 ug/ml. An incubation step of at least 30 minutes at 4° C. followed. Afterwards, cells were washed with PBS and a secondary goat anti-rabbit antibody labelled with Alexa Fluor 488 antibody (ThermoFisher) at 2 ug/ml was added. The same incubation conditions applied. Finally, the cells were washed twice and resuspended in Cytofix fixation buffer (BD Biosciences) for 15 min at room temperature (RT).

First: B1
Second: B2
The EC50 of the first is 2.7-fold higher: 77 nM for the first, 29 nM for the second.

B3 was tested, and the EC50 was 7.9 nM.

Molecular target: T1, biotinylated extracellular domains of …
Experiment: SPR (ProteOn XPR36), bio.hCD123 immobilised on NLC chip, DARPin in TCE format injected at 50 nM, single trace
Procedure: SPR measurements were performed using a ProteOn XPR36 instrument (BioRad). The running buffer was PBS pH 7.4 containing 0.005% Tween 20® (PBST). The bio.hCD123 target was immobilized on a NLC chips (BioRad) to a level of 600 RU. The interactions of the 96well purified CD123-specific ankyrin repeat proteins in TCE format to bio. hCD123 were measured by injecting the DARPin® molecules at 50 nM with an association of 120 s and dissociation of 1200 s using a constant flow of 100 μl/min. Some DARPin proteins were reinjected using a dissociation of 600 s. The target was regenerated between the individual measurements using 10 mM Glycine pH2.5. The signals were double referenced against the running buffer (PBST) treated control lane of L1 and A6.
Dissociation constants (KD) were calculated from the estimated on- and off-rates using standard procedures known to the person skilled in the art. KD values were determined by single trace SPR. The values in Table 2a are averages of multiple replicates.

Going from B4 to B5, the Kd rises from 0.93 nM to 8.5 nM (9.1-fold).

Going from B6 to B7, the Kd falls from 12 nM to 4.5 nM (2.7-fold). The second binds more tightly here.

First: B8
Second: B9
The Kd of the first is 1.9-fold higher: 1 nM for the first, 0.52 nM for the second. The second binds more tightly here.

Compared with B10, B11 is 21-fold higher in Kd: 2.1 nM for the first, 45 nM for the second. The first binds more tightly here.
